Measurements published in publication PMC12256043, “Integrated platform for structural and functional analysis of terpene synthases of Cannabis sativa” (PeerJ, 2025).
Each block holds one molecule with its values, some of them ahead of it.

How the values were obtained:
Assay in all cases: malachite green assay coupled to inorganic pyrophosphatase
Settings in all cases: pH 7.5, 5 mM MgCl2, 37 °C, 30 min
CsTPS12PK = molecular target: T1, CsTPS12PK (Cannabis sativa, UniProt A0A1V0QSF4); type: biochemical
T1 construct: gene TPS33PK; printed as CsTPS12PK/CsTPS33PK; E. coli; monomer
T1 sequence (A0A1V0QSF4 34-615): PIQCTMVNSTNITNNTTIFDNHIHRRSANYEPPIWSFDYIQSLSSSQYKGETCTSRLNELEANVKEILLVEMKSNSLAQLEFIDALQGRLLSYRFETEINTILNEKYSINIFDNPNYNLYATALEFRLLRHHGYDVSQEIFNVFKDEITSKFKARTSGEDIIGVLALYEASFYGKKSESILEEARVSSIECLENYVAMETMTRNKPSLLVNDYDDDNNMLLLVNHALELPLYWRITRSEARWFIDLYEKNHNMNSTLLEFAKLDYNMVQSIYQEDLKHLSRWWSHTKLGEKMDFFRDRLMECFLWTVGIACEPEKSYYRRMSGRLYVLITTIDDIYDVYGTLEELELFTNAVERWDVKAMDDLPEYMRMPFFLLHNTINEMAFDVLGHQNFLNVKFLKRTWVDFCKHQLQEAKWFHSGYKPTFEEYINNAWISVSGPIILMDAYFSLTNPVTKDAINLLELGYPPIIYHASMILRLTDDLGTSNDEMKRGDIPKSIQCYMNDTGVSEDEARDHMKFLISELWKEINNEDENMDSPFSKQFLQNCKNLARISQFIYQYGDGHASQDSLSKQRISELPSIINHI
Excerpt: malachite green assay coupled to inorganic pyrophosphatase on CsTPS12PK

CsTPS13PK = molecular target: T2, CsTPS13PK (Cannabis sativa, UniProt A0A1V0QSG1); type: biochemical
T2 construct: gene TPS13PK; E. coli BL21(DE3); monomer
T2 sequence (A0A1V0QSG1 41-640): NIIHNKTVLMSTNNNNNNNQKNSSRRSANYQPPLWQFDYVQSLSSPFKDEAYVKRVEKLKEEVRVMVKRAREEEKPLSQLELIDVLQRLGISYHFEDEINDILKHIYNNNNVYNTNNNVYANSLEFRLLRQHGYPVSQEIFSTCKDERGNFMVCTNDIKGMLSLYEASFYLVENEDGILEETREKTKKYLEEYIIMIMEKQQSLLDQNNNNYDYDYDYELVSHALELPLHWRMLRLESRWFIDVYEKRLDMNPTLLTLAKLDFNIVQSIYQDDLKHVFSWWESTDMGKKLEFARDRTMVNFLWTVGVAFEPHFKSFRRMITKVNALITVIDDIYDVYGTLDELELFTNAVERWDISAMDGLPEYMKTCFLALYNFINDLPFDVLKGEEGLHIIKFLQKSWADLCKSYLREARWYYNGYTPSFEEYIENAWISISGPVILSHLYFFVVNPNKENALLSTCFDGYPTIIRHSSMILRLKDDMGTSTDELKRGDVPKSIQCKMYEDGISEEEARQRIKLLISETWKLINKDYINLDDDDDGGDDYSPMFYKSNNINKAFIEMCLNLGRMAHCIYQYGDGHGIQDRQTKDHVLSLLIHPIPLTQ
Excerpt: malachite green assay coupled to inorganic pyrophosphatase on CsTPS13PK

[1] = substrate: CC(C)=CCC/C(C)=C/CC/C(C)=C/CO[P@@](=O)(O)OP(=O)(O)O; type: biochemical, Cannabis sativa
Excerpt: malachite green assay coupled to inorganic pyrophosphatase on CsTPS16CC

[2] = substrate: CC(C)=CCC/C(C)=C/CC/C(C)=C/CO[P@@](=O)(O)OP(=O)(O)O; type: biochemical, Cannabis sativa; remark: listed apart in the source
Excerpt: malachite green assay coupled to inorganic pyrophosphatase on CsTPS20CT

[3] = substrate: CC(C)=CCC/C(C)=C/COP(=O)(O)OP(=O)(O)O; type: biochemical, Cannabis sativa
Excerpt: malachite green assay coupled to inorganic pyrophosphatase on CsTPS1SK

[4] = substrate: CC(C)=CCC/C(C)=C/COP(=O)(O)OP(=O)(O)O; type: biochemical, Cannabis sativa; remark: listed apart in the source
[5] = substrate: CC(C)=CCC/C(C)=C/COP(=O)(O)OP(=O)(O)O; type: biochemical, Cannabis sativa; remark: listed apart in the source
Excerpt: malachite green assay coupled to inorganic pyrophosphatase on CsTPS3FN

Km (CsTPS12PK): 41.8 ± 8.29 µM
Km (CsTPS13PK): 13 ± 1.23 µM
Molecule: CC(C)=CCC/C(C)=C/COP(=O)(O)OP(=O)(O)O [GPP, geranyl diphosphate]

B1: CsTPS16CC (Cannabis sativa) (protein)
chain: MSSQVLASSQKNDKTQNIIRPTTKFHPPIWGDRFLHYNISEQELEYKEGQVEELKEVVRKEIFHGNNKRNIINVSKQLKLIDDVERLGLSYHFESEIEKKLQHIYEITTNNIDHQDQHYYYSNHDEDLHDVSIRFRLLRQHGFNISSNIFEKFKDESGKFKESLKSDIEGMLSLYEASYLSYVEENILDEALAFTTTNLKLVANKKEHPLSHEISLALYRPLRKTLVRLYARHYISIYEKQPSHNKVLLQFAKLDFNLLQSLHKKELSEISRWWKELDLANKLPFARNRIVELYLWILGVFHEPQFSLARKILIKAISMASVADDIYDAYGTFEELELLTEAILRWDISFIDKLSPDYLKTYYKVFLNSYEECEKDLKKEERYKLHYAKESMKKLIQAYFHEAQWLNQGHFPSFDEHLKVSFVSSGYPMLIETSFVGMQDVKTNQVFEWLSTQPKIFRACTIISRFMDDLVSRKFEQERNHVPSTVDCYMKQYGVSEQEACDELNKQVVNLWKEINQEFLRPTSMPSSILVRILNFTKVLDIIYKEGDGYTHVGKLVKDSVAALLIDPIPL
notes: E. coli BL21(DE3); monomer
Km [1]: 38.43 ± 2.83 µM

B2: CsTPS20CT (Cannabis sativa) (protein)
chain: MSNIQVLASSQLSDKIIARPTTKFHPSIWGDRFLHYNISEQDLVCKQEKVEELIQVVKKEILSSNHDQLKLIDNLQRLGLSYHFESEIEKLLEQLSITHHQNHHDLHDASLWFRLLRQHGFNVSSSIFEKFKDEEGNFKESLITDVPGLLSLYEASHLSYVGESILDEALAFTTTHLKAIVANSKDHPLSHQISIVLHRPLRKTIERLHARFYISIYEKDASHNKLLLELAKLDFNLLQCFHKKELSEITRWWKEHEFAKKFPFARDRMVELYFWILGVYYEPKYSRARKLLTKVIALTSITDDIYDAYGTIDELQLLTKAIQRWDINCMDKLKQEYLKTYYKVMLDSYEEFEKELKKEELYKLEYAKEEMKRIIGGYFEEARWLNEGYFPSFDEHLRVSYVSSGNVLLIATSFVGMHDVVTHETLDWLSKDPKIVSASTLLSRFMDDIGSRKFEQKRNHIPSTVDCYMKQYGVSEEEAIKELNKRVDTHWKEINEDFIRPAVVPFPILVRVLNFTKIVDLLYKEGDDQYTNVGKVLKESIAALLIDSIPL
notes: E. coli BL21(DE3); monomer
Km [2]: 16.86 ± 6.42 µM

B3: CsTPS1SK (Cannabis sativa) (protein)
chain: RSANYGPPIWSFDFVQSLPIQYKGESYTSRLNKLEKDVKRMLIGVENSLAQLELIDTIQRLGISYRFENEIISILKEKFTNNNNNPNPINYDLYATALQFRLLRQYGFEVPQEIFNNFKNHKTGEFKANISNDIMGALGLYEASFHGKKGESILEEARIFTTKCLKKYKLMSSSNNNNMTLISLLVNHALEMPLQWRITRSEAKWFIEEIYERKQDMNPTLLEFAKLDFNMLQSTYQEELKVLSRWWKDSKLGEKLPFVRDRLVECFLWQVGVRFEPQFSYFRIMDTKLYVLLTIIDDMHDIYGTLEELQLFTNALQRWDLKELDKLPDYMKTAFYFTYNFTNELAFDVLQEHGFVHIEYFKKLMVELCKHHLQEAKWFYSGYKPTLQEYVENGWLSVGGQVILMHAYFAFTNPVTKEALECLKDGHPNIVRHASIILRLADDLGTLSDELKRGDVPKSIQCYMHDTGASEDEAREHIKYLISESWKEMNNEDGNINSFFSNEFVQVKQNLGRASQMIYQYGDGHASQNNLSKERVLGLIITPIPM
notes: E. coli BL21(DE3); monomer
Km [3]: 7.809 ± 0.678 µM

B4: CsTPS5FN (Cannabis sativa) (protein)
chain: MSLSGLISTTTFKEQPAIVRRSGNYKPPLWDAHFIQSLQVIYTEESYGKRINELKEDVRRILEKEAENPLVKLEQINDLSRLGISYHFEDQIKAILNLTYNNNNALWKKDNLYATALHFKLLRQYGFNPVSSEIFNAFKDEKKEFKESLSKDVKGMVCLYEASFYSFRGEPILDEARDFTTKHLKQYLMMTRQGQNVDHDDDNDLMVKLVEHALELPVHWRMKRLEARWFIDMYAEMSHHHHMNSTFLQLAKLDFNVVQSTYQEDLKHVVRWWKTTSLGERLPFARDRIVEIFLWSVGLKFEPQFRYCRKMLTKIGQLVTTMDDIFDVYGTLDELSLFQHALGRWDINTIDQLPDYMKIFFLATYNVVNEMAYDVLKQNGILIIKYLKKTWTDLCKCYMLEANWYHSGYTPSLEEYIKNGWISIAEPLILVNLYCLITNPIKEDDIDCLLQYPTFIRISGIIARLVDDLGTSSDELKRGDNPKSIQCYMKENGICDEKNGREHIRNLISETWKEMNEARVGESPFSQAFIETAIDFVRTAMMIYQKEQDGVGTNIDHYTKDGIISLFFTSIPI
notes: E. coli BL21(DE3); monomer
Km [4]: 23.3 ± 1.34 µM

B5: CsTPS3FN (Cannabis sativa) (protein)
chain: RSANYEPPIWSFDYIQSLSTQYKGESYTRQLNKLKKEVKRMLLRMEINSLALLELIDTLQRLGISYHFKNEINTILKKKYNDNYINNNIITNPNYNNLYATALEFRLLRQHGYTVPQEIFNAFKDKRGKFKTSLSDDIMGVLCLYEASFYAMKHENILEEARIFSTKCLKKYMEKIENEEEKKILLLNDNNINSNLLLINHAFELPLHWRITRSEARWFIDEIYEKKQDMNSTLFEFAKLDFNIVQSTHQEDLQHLSRWWRDCKLGGKLNFARDRLMEAFLWDVGLKFEGEFSYFRRTNARLFVLITIIDDIYDVYGTLEELELFTSAVERWDVKLINELPDYMKMPFFVLHNTINEMGFDVLVEQNFVNIEYLKKSWVDLCKCYLQEAKWYYSGYQPTLEEYTELGWLSIGASVILMHAYFCFTNPITKQDLKSLQLQHHYPNIIKQACLITRLADDLGTSSDELNRGDVPKSIQCYMYDNNATEDEAREHIKFLISETWKDMNKKDEDESCLSENFVEVCKNMARTALFIYENGDGHGSQNSLSKERISTLIITPINIPK
notes: E. coli BL21(DE3); monomer
Km [5]: 4.569 ± 0.411 µM
